Article PMC10786891, “Massively parallel profiling of RNA-targeting CRISPR-Cas13d”
Changes are numbered by the printed parent chain. Names and notes keep the numbering of the source.

T1: EsCas13d, nuclease-dead (Eubacterium siraeum, UniProt B0MS50, R295A;H300A;R849A;H854A)
T1 sequence: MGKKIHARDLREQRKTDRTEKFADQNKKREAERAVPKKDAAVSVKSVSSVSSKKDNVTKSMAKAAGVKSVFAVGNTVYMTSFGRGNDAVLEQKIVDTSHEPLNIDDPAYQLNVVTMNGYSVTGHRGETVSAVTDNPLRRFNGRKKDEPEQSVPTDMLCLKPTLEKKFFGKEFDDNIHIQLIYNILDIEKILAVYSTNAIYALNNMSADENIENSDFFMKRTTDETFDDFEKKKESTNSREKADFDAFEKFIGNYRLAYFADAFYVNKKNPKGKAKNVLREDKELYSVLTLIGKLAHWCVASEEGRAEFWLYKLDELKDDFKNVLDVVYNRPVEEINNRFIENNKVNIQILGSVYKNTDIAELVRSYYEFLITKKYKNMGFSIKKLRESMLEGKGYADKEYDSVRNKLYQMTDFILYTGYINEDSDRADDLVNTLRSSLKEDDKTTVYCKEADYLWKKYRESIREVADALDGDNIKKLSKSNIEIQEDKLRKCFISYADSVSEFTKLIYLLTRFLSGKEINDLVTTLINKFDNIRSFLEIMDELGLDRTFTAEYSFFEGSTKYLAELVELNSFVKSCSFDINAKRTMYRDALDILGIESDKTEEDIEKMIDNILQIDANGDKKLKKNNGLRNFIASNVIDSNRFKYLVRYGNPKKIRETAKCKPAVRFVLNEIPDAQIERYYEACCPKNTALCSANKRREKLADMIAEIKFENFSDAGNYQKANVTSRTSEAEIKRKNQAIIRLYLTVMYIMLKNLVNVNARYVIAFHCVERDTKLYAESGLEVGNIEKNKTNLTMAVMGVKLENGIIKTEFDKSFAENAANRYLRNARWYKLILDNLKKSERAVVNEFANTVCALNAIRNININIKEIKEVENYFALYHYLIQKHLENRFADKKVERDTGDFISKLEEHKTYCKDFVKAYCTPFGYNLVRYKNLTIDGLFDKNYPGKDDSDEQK

B1: target 1 C7U,A16C (mixed)
RNA 1: CACCCGUGCAAAAAUGCAGGGGUCUAAAACUGAGCGGAUAACCUCUCUAUGG
RNA 2: GGGAAUGGAUCCACAUCUACGAAUUCGUACCAUAGCGAGGUUAUUCGCUCACCGAGAUCGGAAGAGCACACGU
B2: target 1 insU 3' of 22,insG 3' of 19 (mixed)
RNA 1: B1 RNA 1
RNA 2: GGGAAUGGAUCCACAUCUACGAAUUCGUACUCAUGAGAGAGGUUAUCCGCUCACCGAGAUCGGAAGAGCACACGU
B3: target 1 insG 3' of 10,insC 3' of 3 (mixed)
RNA 1: B1 RNA 1
RNA 2: GGGAAUGGAUCCACAUCUACGAAUUCGUACCAUAGAGAGGUUGAUCCGCUCCACCGAGAUCGGAAGAGCACACGU
B4: target 1 insU 3' of 9 (mixed)
RNA 1: B1 RNA 1
RNA 2: GGGAAUGGAUCCACAUCUACGAAUUCGUACCAUAGAGAGGUUAUUCCGCUCACCGAGAUCGGAAGAGCACACGU
B5: target 1 insA 3' of 19,insG 3' of 14 (mixed)
RNA 1: B1 RNA 1
RNA 2: GGGAAUGGAUCCACAUCUACGAAUUCGUACCAUAAGAGAGGGUUAUCCGCUCACCGAGAUCGGAAGAGCACACGU
B6: target 1 insG 3' of 8,insG 3' of 3 (mixed)
RNA 1: B1 RNA 1
RNA 2: B3 RNA 2 with G43A, A44U, U45G, C51G
B7: target 1 insA 3' of 17,insA 3' of 10 (mixed)
RNA 1: B1 RNA 1
RNA 2: B5 RNA 2 with A35G, G36A, G42U, U44A
B8: target 1 insC 3' of 5,insG 3' of 2 (mixed)
RNA 1: B1 RNA 1
RNA 2: B3 RNA 2 with G43A, A44U, U45C, C47G, G48C, C52G
B9: target 1 insC 3' of 13,insG 3' of 8 (mixed)
RNA 1: B1 RNA 1
RNA 2: B3 RNA 2 with G40C, U41G, G43U, C46G, G48C, C49G, U50C, C51U
B10: target 1 insA 3' of 12,insA 3' of 6 (mixed)
RNA 1: B1 RNA 1
RNA 2: B3 RNA 2 with U41A, G43U, G48A, C49G, U50C, C51U
B11: target 1 insA 3' of 21,insC 3' of 15 (mixed)
RNA 1: B1 RNA 1
RNA 2: B5 RNA 2 with U33A, A34U, A39C, G40A
B12: target 1 G5C,U8G (mixed)
RNA 1: B1 RNA 1
RNA 2: B1 RNA 2 with C36A, U44G, U45C, G47C
B13: target 1 insG 3' of 22,insU 3' of 4 (mixed)
RNA 1: B1 RNA 1
RNA 2: GGGAAUGGAUCCACAUCUACGAAUUCGUACGCAUAGAGAGGUUAUCCGCUUCACCGAGAUCGGAAGAGCACACGU
B14: target 1 C2U,A9C (mixed)
RNA 1: B1 RNA 1
RNA 2: B1 RNA 2 with C36A, A43C, U45C, C50U
B15: target 1 U3C,A14G (mixed)
RNA 1: B1 RNA 1
RNA 2: B1 RNA 2 with C36A, A38G, U45C, U49C
B16: target 1 U3G,U11G (mixed)
RNA 1: B1 RNA 1
RNA 2: B1 RNA 2 with C36A, U41G, U45C, U49G
B17: target 1 insU 3' of 22,insC 3' of 13 (mixed)
RNA 1: B1 RNA 1
RNA 2: B5 RNA 2 with C31U, A32C, U33A, A34U, G41C
B18: target 1 insA 3' of 22,insA 3' of 11 (mixed)
RNA 1: B1 RNA 1
RNA 2: B5 RNA 2 with C31A, A32C, U33A, A34U, G42U, U43A
B19: target 1 insA 3' of 7,insU 3' of 2 (mixed)
RNA 1: B1 RNA 1
RNA 2: B3 RNA 2 with G43A, A44U, U45C, C46A, C52U
B20: target 1 U8G,A9U (mixed)
RNA 1: B1 RNA 1
RNA 2: B1 RNA 2 with C36A, A43U, U44G, U45C
B21: target 1 insC 3' of 12,insA 3' of 4 (mixed)
RNA 1: B1 RNA 1
RNA 2: B3 RNA 2 with U41C, G43U, U50A, C51U
B22: target 1 G12C,G15U (mixed)
RNA 1: B1 RNA 1
RNA 2: B1 RNA 2 with C36A, G37U, G40C, U45C
B23: target 1 insG 3' of 11,insU 3' of 2 (mixed)
RNA 1: B1 RNA 1
RNA 2: B3 RNA 2 with U42G, G43U, C52U
B24: target 1 insC 3' of 22,insC 3' of 9 (mixed)
RNA 1: B1 RNA 1
RNA 2: B5 RNA 2 with A32C, U33A, A34U, G42U, U44A, A45C
B25: target 1 U8A,A18G (mixed)
RNA 1: B1 RNA 1
RNA 2: B1 RNA 2 with A34G, C36A, U44A, U45C
B26: target 1 C6A,G12C (mixed)
RNA 1: B1 RNA 1
RNA 2: B1 RNA 2 with C36A, G40C, U45C, C46A
B27: target 1 insA 3' of 10 (mixed)
RNA 1: B1 RNA 1
RNA 2: B4 RNA 2 with U44A
B28: target 1 A9G,U19A (mixed)
RNA 1: B1 RNA 1
RNA 2: B1 RNA 2 with U33A, C36A, A43G, U45C
B29: target 1 insU 3' of 18 (mixed)
RNA 1: B1 RNA 1
RNA 2: B4 RNA 2 with G35U, A36G, G37A, A38G, G39A, U41G, A43U, U44A

These binders were tested against T1, EsCas13d, nuclease-dead (assay: crRNA (strand 1, pre-loaded); Mg2+; 40 mM Tris-HCl pH 7.5, 150 mM NaCl, 6 mM MgCl2, 1 mM DTT, 0.1% Tween-20, 0.2 mg/ml BSA; 25 C; 10 min per concentration, then washed). Details: tags: His6-TwinStrep-SUMO cleaved; N-terminal SNAP kept (SNAP-Surface 488); label: 3' end held by stalled T7 RNA polymerase.

Binder	Kd
B1	43 ± 4 nM
B2	86 ± 19 nM
B3	26.7 ± 1.9 nM
B4	13.1 ± 0.9 nM
B5	28.6 ± 1.5 nM
B6	7.7 ± 0.4 nM
B7	19.2 ± 1.7 nM
B8	10 ± 0.5 nM
B9	13.9 ± 1.5 nM
B10	37.3 ± 3 nM
B11	55 ± 11 nM
B12	35 ± 4 nM
B13	32 ± 5 nM
B14	14.2 ± 0.5 nM
B15	57 ± 18 nM
B16	11.7 ± 0.9 nM
B17	88 ± 32 nM
B18	17.6 ± 1 nM
B19	7.5 ± 0.6 nM
B20	11.4 ± 0.4 nM
B21	7 ± 0.7 nM
B22	~60 nM
B23	50 ± 9 nM
B24	50 ± 13 nM
B25	72 ± 16 nM
B26	14.8 ± 0.5 nM
B27	12 ± 0.5 nM
B28	44 ± 5 nM
B29	31 ± 3.2 nM
